Experimental data taken from patent publication US20210388087A1 (Chugai, published 2021).

B1: H183/L072 VH G52cS (antibody, name in Kabat numbering, V domains shown)
VH: QVQLVESGGGLVQPGRSLRLSCAASGFTFSNAWMHWVRQAPGKGLEWVAQIKDKSNAYAAYYAPSVKGRFTISRDDSKNSIYLQMNSLKTEDTAVYYCHYVHYASASTVLPAFGVDAWGQGTTVTVSS
VL: DIVMTQSPLSLPVTPGEPASISCQASQELVHMNRNTYLHWYQQKPGQAPRLLIYKVSNRFPGVPDRFSGSGSGTDFTLKISRVEAEDVGVYYCAQGTSVPFTFGQGTKLEIK
B2: H183/L072 VH G52cW (antibody, name in Kabat numbering, V domains shown)
VH: QVQLVESGGGLVQPGRSLRLSCAASGFTFSNAWMHWVRQAPGKGLEWVAQIKDKWNAYAAYYAPSVKGRFTISRDDSKNSIYLQMNSLKTEDTAVYYCHYVHYASASTVLPAFGVDAWGQGTTVTVSS
VL: DIVMTQSPLSLPVTPGEPASISCQASQELVHMNRNTYLHWYQQKPGQAPRLLIYKVSNRFPGVPDRFSGSGSGTDFTLKISRVEAEDVGVYYCAQGTSVPFTFGQGTKLEIK
B3: H183/L072 VH G52cY (antibody, name in Kabat numbering, V domains shown)
VH: QVQLVESGGGLVQPGRSLRLSCAASGFTFSNAWMHWVRQAPGKGLEWVAQIKDKYNAYAAYYAPSVKGRFTISRDDSKNSIYLQMNSLKTEDTAVYYCHYVHYASASTVLPAFGVDAWGQGTTVTVSS
VL: DIVMTQSPLSLPVTPGEPASISCQASQELVHMNRNTYLHWYQQKPGQAPRLLIYKVSNRFPGVPDRFSGSGSGTDFTLKISRVEAEDVGVYYCAQGTSVPFTFGQGTKLEIK
B4: H183/L072 VH G65M (antibody, name in Kabat numbering, V domains shown)
VH: QVQLVESGGGLVQPGRSLRLSCAASGFTFSNAWMHWVRQAPGKGLEWVAQIKDKGNAYAAYYAPSVKMRFTISRDDSKNSIYLQMNSLKTEDTAVYYCHYVHYASASTVLPAFGVDAWGQGTTVTVSS
VL: DIVMTQSPLSLPVTPGEPASISCQASQELVHMNRNTYLHWYQQKPGQAPRLLIYKVSNRFPGVPDRFSGSGSGTDFTLKISRVEAEDVGVYYCAQGTSVPFTFGQGTKLEIK
B5: H183/L072 VH H35F (antibody, name in Kabat numbering, V domains shown)
VH: QVQLVESGGGLVQPGRSLRLSCAASGFTFSNAWMFWVRQAPGKGLEWVAQIKDKGNAYAAYYAPSVKGRFTISRDDSKNSIYLQMNSLKTEDTAVYYCHYVHYASASTVLPAFGVDAWGQGTTVTVSS
VL: DIVMTQSPLSLPVTPGEPASISCQASQELVHMNRNTYLHWYQQKPGQAPRLLIYKVSNRFPGVPDRFSGSGSGTDFTLKISRVEAEDVGVYYCAQGTSVPFTFGQGTKLEIK
B6: H183/L072 VH G100hP (antibody, name in Kabat numbering, V domains shown)
VH: QVQLVESGGGLVQPGRSLRLSCAASGFTFSNAWMHWVRQAPGKGLEWVAQIKDKGNAYAAYYAPSVKGRFTISRDDSKNSIYLQMNSLKTEDTAVYYCHYVHYASASTVLPAFPVDAWGQGTTVTVSS
VL: DIVMTQSPLSLPVTPGEPASISCQASQELVHMNRNTYLHWYQQKPGQAPRLLIYKVSNRFPGVPDRFSGSGSGTDFTLKISRVEAEDVGVYYCAQGTSVPFTFGQGTKLEIK
B7: H183/L072 VH G65L (antibody, name in Kabat numbering, V domains shown)
VH: QVQLVESGGGLVQPGRSLRLSCAASGFTFSNAWMHWVRQAPGKGLEWVAQIKDKGNAYAAYYAPSVKLRFTISRDDSKNSIYLQMNSLKTEDTAVYYCHYVHYASASTVLPAFGVDAWGQGTTVTVSS
VL: DIVMTQSPLSLPVTPGEPASISCQASQELVHMNRNTYLHWYQQKPGQAPRLLIYKVSNRFPGVPDRFSGSGSGTDFTLKISRVEAEDVGVYYCAQGTSVPFTFGQGTKLEIK
B8: H183/L072 VH H35D (antibody, name in Kabat numbering, V domains shown)
VH: QVQLVESGGGLVQPGRSLRLSCAASGFTFSNAWMDWVRQAPGKGLEWVAQIKDKGNAYAAYYAPSVKGRFTISRDDSKNSIYLQMNSLKTEDTAVYYCHYVHYASASTVLPAFGVDAWGQGTTVTVSS
VL: DIVMTQSPLSLPVTPGEPASISCQASQELVHMNRNTYLHWYQQKPGQAPRLLIYKVSNRFPGVPDRFSGSGSGTDFTLKISRVEAEDVGVYYCAQGTSVPFTFGQGTKLEIK
B9: H183/L072 VH G100hL (antibody, name in Kabat numbering, V domains shown)
VH: QVQLVESGGGLVQPGRSLRLSCAASGFTFSNAWMHWVRQAPGKGLEWVAQIKDKGNAYAAYYAPSVKGRFTISRDDSKNSIYLQMNSLKTEDTAVYYCHYVHYASASTVLPAFLVDAWGQGTTVTVSS
VL: DIVMTQSPLSLPVTPGEPASISCQASQELVHMNRNTYLHWYQQKPGQAPRLLIYKVSNRFPGVPDRFSGSGSGTDFTLKISRVEAEDVGVYYCAQGTSVPFTFGQGTKLEIK
B10: H183/L072 VH H35E (antibody, name in Kabat numbering, V domains shown)
VH: QVQLVESGGGLVQPGRSLRLSCAASGFTFSNAWMEWVRQAPGKGLEWVAQIKDKGNAYAAYYAPSVKGRFTISRDDSKNSIYLQMNSLKTEDTAVYYCHYVHYASASTVLPAFGVDAWGQGTTVTVSS
VL: DIVMTQSPLSLPVTPGEPASISCQASQELVHMNRNTYLHWYQQKPGQAPRLLIYKVSNRFPGVPDRFSGSGSGTDFTLKISRVEAEDVGVYYCAQGTSVPFTFGQGTKLEIK
B11: H183/L072 VH G65P (antibody, name in Kabat numbering, V domains shown)
VH: QVQLVESGGGLVQPGRSLRLSCAASGFTFSNAWMHWVRQAPGKGLEWVAQIKDKGNAYAAYYAPSVKPRFTISRDDSKNSIYLQMNSLKTEDTAVYYCHYVHYASASTVLPAFGVDAWGQGTTVTVSS
VL: DIVMTQSPLSLPVTPGEPASISCQASQELVHMNRNTYLHWYQQKPGQAPRLLIYKVSNRFPGVPDRFSGSGSGTDFTLKISRVEAEDVGVYYCAQGTSVPFTFGQGTKLEIK
B12: H183/L072 VH G52cT (antibody, name in Kabat numbering, V domains shown)
VH: QVQLVESGGGLVQPGRSLRLSCAASGFTFSNAWMHWVRQAPGKGLEWVAQIKDKTNAYAAYYAPSVKGRFTISRDDSKNSIYLQMNSLKTEDTAVYYCHYVHYASASTVLPAFGVDAWGQGTTVTVSS
VL: DIVMTQSPLSLPVTPGEPASISCQASQELVHMNRNTYLHWYQQKPGQAPRLLIYKVSNRFPGVPDRFSGSGSGTDFTLKISRVEAEDVGVYYCAQGTSVPFTFGQGTKLEIK
B13: H183/L072 VH G100hA (antibody, name in Kabat numbering, V domains shown)
VH: QVQLVESGGGLVQPGRSLRLSCAASGFTFSNAWMHWVRQAPGKGLEWVAQIKDKGNAYAAYYAPSVKGRFTISRDDSKNSIYLQMNSLKTEDTAVYYCHYVHYASASTVLPAFAVDAWGQGTTVTVSS
VL: DIVMTQSPLSLPVTPGEPASISCQASQELVHMNRNTYLHWYQQKPGQAPRLLIYKVSNRFPGVPDRFSGSGSGTDFTLKISRVEAEDVGVYYCAQGTSVPFTFGQGTKLEIK
B14: H183/L072 VH G100hI (antibody, name in Kabat numbering, V domains shown)
VH: QVQLVESGGGLVQPGRSLRLSCAASGFTFSNAWMHWVRQAPGKGLEWVAQIKDKGNAYAAYYAPSVKGRFTISRDDSKNSIYLQMNSLKTEDTAVYYCHYVHYASASTVLPAFIVDAWGQGTTVTVSS
VL: DIVMTQSPLSLPVTPGEPASISCQASQELVHMNRNTYLHWYQQKPGQAPRLLIYKVSNRFPGVPDRFSGSGSGTDFTLKISRVEAEDVGVYYCAQGTSVPFTFGQGTKLEIK
B15: H183/L072 VH G65I (antibody, name in Kabat numbering, V domains shown)
VH: QVQLVESGGGLVQPGRSLRLSCAASGFTFSNAWMHWVRQAPGKGLEWVAQIKDKGNAYAAYYAPSVKIRFTISRDDSKNSIYLQMNSLKTEDTAVYYCHYVHYASASTVLPAFGVDAWGQGTTVTVSS
VL: DIVMTQSPLSLPVTPGEPASISCQASQELVHMNRNTYLHWYQQKPGQAPRLLIYKVSNRFPGVPDRFSGSGSGTDFTLKISRVEAEDVGVYYCAQGTSVPFTFGQGTKLEIK
B16: H183/L072 VH G52cV (antibody, name in Kabat numbering, V domains shown)
VH: QVQLVESGGGLVQPGRSLRLSCAASGFTFSNAWMHWVRQAPGKGLEWVAQIKDKVNAYAAYYAPSVKGRFTISRDDSKNSIYLQMNSLKTEDTAVYYCHYVHYASASTVLPAFGVDAWGQGTTVTVSS
VL: DIVMTQSPLSLPVTPGEPASISCQASQELVHMNRNTYLHWYQQKPGQAPRLLIYKVSNRFPGVPDRFSGSGSGTDFTLKISRVEAEDVGVYYCAQGTSVPFTFGQGTKLEIK
B17: H183/L072 VH G65A (antibody, name in Kabat numbering, V domains shown)
VH: QVQLVESGGGLVQPGRSLRLSCAASGFTFSNAWMHWVRQAPGKGLEWVAQIKDKGNAYAAYYAPSVKARFTISRDDSKNSIYLQMNSLKTEDTAVYYCHYVHYASASTVLPAFGVDAWGQGTTVTVSS
VL: DIVMTQSPLSLPVTPGEPASISCQASQELVHMNRNTYLHWYQQKPGQAPRLLIYKVSNRFPGVPDRFSGSGSGTDFTLKISRVEAEDVGVYYCAQGTSVPFTFGQGTKLEIK
B18: H183/L072 VH G100hM (antibody, name in Kabat numbering, V domains shown)
VH: QVQLVESGGGLVQPGRSLRLSCAASGFTFSNAWMHWVRQAPGKGLEWVAQIKDKGNAYAAYYAPSVKGRFTISRDDSKNSIYLQMNSLKTEDTAVYYCHYVHYASASTVLPAFMVDAWGQGTTVTVSS
VL: DIVMTQSPLSLPVTPGEPASISCQASQELVHMNRNTYLHWYQQKPGQAPRLLIYKVSNRFPGVPDRFSGSGSGTDFTLKISRVEAEDVGVYYCAQGTSVPFTFGQGTKLEIK
B19: H183/L072 VH H35A (antibody, name in Kabat numbering, V domains shown)
VH: QVQLVESGGGLVQPGRSLRLSCAASGFTFSNAWMAWVRQAPGKGLEWVAQIKDKGNAYAAYYAPSVKGRFTISRDDSKNSIYLQMNSLKTEDTAVYYCHYVHYASASTVLPAFGVDAWGQGTTVTVSS
VL: DIVMTQSPLSLPVTPGEPASISCQASQELVHMNRNTYLHWYQQKPGQAPRLLIYKVSNRFPGVPDRFSGSGSGTDFTLKISRVEAEDVGVYYCAQGTSVPFTFGQGTKLEIK

Molecular target: T1, Human CD3eg linker (human)
T1 construct: Single chain: epsilon and gamma subunits of human CD3 joined by a 29-mer linker, Flag-tag at the C-terminus; also called recombinant human CD3
T1 chain: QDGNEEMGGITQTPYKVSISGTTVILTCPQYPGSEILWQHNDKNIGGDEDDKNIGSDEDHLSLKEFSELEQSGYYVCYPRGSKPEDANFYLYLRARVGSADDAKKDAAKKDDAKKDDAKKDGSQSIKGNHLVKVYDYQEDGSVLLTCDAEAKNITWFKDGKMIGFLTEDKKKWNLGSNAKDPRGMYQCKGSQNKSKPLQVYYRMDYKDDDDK
Assay: Biacore SPR, vs template H183/L072

Going from B1 to B2, the “fold change of affinity” value rises from 1 fold to 1.5 fold.

First: B3
Second: B4
The “fold change of affinity” value of the first is higher: 1.5 fold for the first, 0.9 fold for the second.

Compared with B5, B6 is higher in “fold change of affinity” value: 0 fold for the first, 0.6 fold for the second.

Going from B7 to B8, the “fold change of affinity” value falls from 0.9 fold to 0 fold.

Going from B9 to B10, the “fold change of affinity” value falls from 0.8 fold to 0 fold.

B11 and B12 are the same in “fold change of affinity” value: 0.9 fold for the first, 0.9 fold for the second.

Compared with B13, B14 is lower in “fold change of affinity” value: 4.8 fold for the first, 2.6 fold for the second.

Going from B15 to B16, the “fold change of affinity” value rises from 1 fold to 1.5 fold.

Going from B17 to B18, the “fold change of affinity” value rises from 1.1 fold to 4.2 fold.

For B19, the “fold change of affinity” value was 0 fold.
